Laboratory results reported in patent US20180023049A1, “SYNTHETIC PEPTIDE HYDROGEL FORMULATIONS FOR USE AS EXTRACELLULAR MATRIX” (3-D MATRIX, LTD., priority 2015, published 2018).

What was measured:
[1] = pH, pKa and isoelectronic point of PuraMatrix; assay type: physicochemical; conditions: aqueous 1% PuraMatrix solution, in this study
Text: Isoelectronic point (pI) is the pH at which a particular molecule carries no net electrical charge. PuraMarix® has four arginine and four aspartic acid. […] That means that there is no net electrical charge between around pH 3.9 and around pH 11.5, where the solubility of PuraMatrix® becomes low. Usually, aqueous PuraMatrix® solution has its pH level at 2.0-2.5. […] Although isotonic PuraMatrix® formulated in 10% sucrose solution has been used for cell culture experiments as shown in the current PuraMatrix® cell culture protocol, the pH of PuraMatrix® with 10% sucrose was also 2.2.

[2] = cited from earlier work

## RADARADARADARADA [PuraMatrix®]
[1]
  pH: 2.2
[2]; aqueous PuraMatrix solution, usually
  pH level: 2.0-2.5
[2]; between around pH 3.9 and around pH 11.5
  solubility: low
[2]
  pKa of aspartic acid in PuraMatrix: 3.9
